Assay [1] addresses T1, human GARP and human LAP-TGFβ1 co-expressed on P3U1 cells (human, UniProt Q14392 20-662).
T1 construct: whole, on cells; also called P3U1 cells over-expressing human GARP and LAP-TGFβ1
Briefly: flow cytometry competition on P3U1 cells with human GARP and LAP-TGFβ1; competitor of biotin-28G11 (5 µg competitor, 0.31 µg biotin-28G11). The procedure: In the first experiment, the various humanized 28G11 candidates were tested for retention of binding to human LAP-TGFβ1 by competition with biotin-28G11 in a flow cytometry assay.
P3U1 cells over-expressing human GARP and LAP-TGFβ1 were placed in a round-bottom 96-well plate at density of 40,000 cells/well. The cells were washed with FACS buffer (25 mM HEPES, 2 mM EDTA, 2% fetal bovine serum in Hank's Balanced Salt Solution). 50 μL of 1:200 diluted TruStain Mouse FcX (BioLegend) was added to each well, followed by 50 μL of 100 ng/μL of humanized 28G11 construct (H0L0, H0L1, H0L2, H0L3, HILO, H1L1, H1L2, H1L3, H2L0, H2L1, H2L2, H2L3). The antibody was allowed to bind for 10 minutes. 50 μL of 6.2 ng/μL of biotinylated murine hybridoma 28G11_(hyb) was added to each well. The biotinylated antibody was allowed to bind for 10 minutes, and then the cells were washed twice with FACS buffer. The cells were labeled for 15 minutes with allophytocyanin-streptavidin (BioLegend), washed twice with FACS buffer, and analyzed by flow cytometry.
(A flow cytometer gives signals particle by particle.)

Assay [2] addresses T2, human LAP-TGFβ1 overexpressed on cells (human, UniProt P01137 30-390).
T2 construct: HT1080 or P3U1 cells overexpressing wild-type human LAP-TGFβ1; also called HT1080-huB1; HT1080-hβ1
Briefly: flow cytometry; black bar HT1080-huB1, grey bar HT1080.

The target of assay [3] is T3, fusion protein of a human IgG1 Fc domain and mouse LAP-TGFβ1 (human; mouse, UniProt P04202 30-390).
T3 construct: also called mouse LAP-TGFβ-Fc
In words: BLI, 2:1 model, component 2. The procedure:
(§1) The 20E6_H0.2aL1_IgG1 antibody was biotinylated using EZ-Link SulfoNHS-LC-Biotin (ThermoFisher). A streptavidin-functionalized tip was equilibrated in binding buffer (10 mM sodium phosphate, 150 mM sodium chloride, 1% (w/v) bovine serum albumin, 0.05% (w/v) sodium azide, pH 7.4) and dipped in a 10 μg/mL solution of biotinylated anti-LAP in binding buffer for 30 seconds to load the tip with antibody. The antibody-loaded tip was then washed in binding buffer and placed in a solution containing 0-24 nM of a fusion protein having a human IgG1 Fc domain fused to either human LAP-TGFβ1, human LAP-TGFβ2 or human LAP-TGFβ3. The antigen was allowed to bind to antibody for 5 minutes (association phase), and then the tip was moved to binding buffer (dissociation phase). The association and dissociation phases were fit to a 2:1 heterogenous ligand binding model to determine the binding rate constants. As shown in FIG. 21A and Table 17, 20E6_H0.2aL1_IgG1 bound with sub-nanomolar affinity to human LAP-TGFβ1, but not to human LAP-TGFβ2 (FIG. 21B) or LAP-TGFβ3 (FIG. 21C).
(§2) The binding of 20E6_H0.2aL1_IgG1 antibody and 20E6_H0.2aL1_hIgG4mut antibody to LAP-TGFβ1 of various species was examined by bio-layer interferometry using the method described in Example 12, except that the antibody-loaded tip was placed in a solution containing 0-24 nM of a fusion protein having a human IgG1 Fc domain fused to either mouse, rat, cynomolgus monkey, or human LAP-TGFβ1.
(In general: BLI is a label-free optical method that tracks binding on a fibre tip over time.)

For assay [4], the target named is T4, fusion protein of a human IgG1 Fc domain and rat LAP-TGFβ1 (human; rat, UniProt P17246 30-390, limits assumed).
T4 construct: also called rat LAP-TGFβ-Fc
In words: BLI, 2:1 model, component 2. The procedure:
as §1, §2

The target in assay [5] is T5, fusion protein of a human IgG1 Fc domain and cynomolgus monkey LAP-TGFβ1 (human; cynomolgus monkey).
T5 construct: also called cynomolgus monkey LAP-TGFβ-Fc
In words: BLI, 2:1 model, component 2. The protocol:
as §1, §2

Assay [6] concerns the target T6, fusion protein of a human IgG1 Fc domain and human LAP-TGFβ1 (human, UniProt P01137 30-390).
T6 construct: printed both as Fc-huB1 and LAP-TGFβ-Fc; also called Fc-huB1; Fc-human LAP
Briefly: BLI, 2:1 model, component 2. The procedure:
as §1, §2

Assay [7] deals with T3, fusion protein of a human IgG1 Fc …. In words: BLI, 2:1 model, component 1. The protocol:
as §1, §2

In assay [8] the target is T4, fusion protein of a human IgG1 Fc …. In words: BLI, 2:1 model, component 1. The protocol: as §1, §2
For assay [9], the target named is T5, fusion protein of a human IgG1 Fc …. In words: BLI, 2:1 model, component 1. The procedure: as §1, §2
The target of assay [10] is T6, fusion protein of a human IgG1 Fc …. In words: BLI, 2:1 model, component 1. The procedure:
as §1, §2

Assay [11] deals with T2, human LAP-TGFβ1 overexpressed on cells. Briefly: flow cytometry; black bar HT1080-huB1, grey bar HT1080. The procedure:
First, the ability of the humanized 20E6 candidates to bind to HT1080 cells overexpressing human TGFβ1 was tested by flow cytometry. HT1080 cells over-expressing human LAP-TGFβ1 were placed in a round-bottom 96-well plate at density of 40,000 cells/well. The cells were washed with FACS buffer (25 mM HEPES, 2 mM EDTA, 2% fetal bovine serum in Hank's Balanced Salt Solution). A volume (50 μL) of 1:200 diluted TruStain Human FcX (BioLegend) was added to each well, followed by 50 μL of 100 ng/μL of humanized 20E6 antibody construct. The antibody was allowed to bind for 20 minutes. The cells were washed twice with FACS buffer. The cells were labeled for 15 minutes with Alexa647-anti Human IgG (Jackson Immunoresearch), washed twice with FACS buffer, and analyzed by flow cytometry.
The source holds these as a separate data set.

Assay [12] shares this target. The assay is described as above. This is another data set of the same source.
For assay [13] the target is unchanged. Briefly: flow cytometry; black bar HT1080-huB1, grey bar HT1080-null.

Residue numbers refer to the chain shown, from its start. Names may count otherwise.

T2 sequence (P01137 30-390): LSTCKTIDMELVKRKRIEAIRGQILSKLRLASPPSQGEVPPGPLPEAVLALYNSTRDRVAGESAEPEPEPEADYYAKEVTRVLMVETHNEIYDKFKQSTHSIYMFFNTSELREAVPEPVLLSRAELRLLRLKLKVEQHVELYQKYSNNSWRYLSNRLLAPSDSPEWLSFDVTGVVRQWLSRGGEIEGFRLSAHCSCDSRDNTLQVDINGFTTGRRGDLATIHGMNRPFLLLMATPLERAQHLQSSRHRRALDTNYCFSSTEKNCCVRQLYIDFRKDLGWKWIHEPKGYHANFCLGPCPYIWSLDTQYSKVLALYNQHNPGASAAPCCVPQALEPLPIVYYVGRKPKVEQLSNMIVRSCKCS
T1 sequence (chain, as listed by the source, chain 1 of 2): as the sequence (P01137 30-390) above
T1 sequence (Q14392 20-662, chain 2 of 2): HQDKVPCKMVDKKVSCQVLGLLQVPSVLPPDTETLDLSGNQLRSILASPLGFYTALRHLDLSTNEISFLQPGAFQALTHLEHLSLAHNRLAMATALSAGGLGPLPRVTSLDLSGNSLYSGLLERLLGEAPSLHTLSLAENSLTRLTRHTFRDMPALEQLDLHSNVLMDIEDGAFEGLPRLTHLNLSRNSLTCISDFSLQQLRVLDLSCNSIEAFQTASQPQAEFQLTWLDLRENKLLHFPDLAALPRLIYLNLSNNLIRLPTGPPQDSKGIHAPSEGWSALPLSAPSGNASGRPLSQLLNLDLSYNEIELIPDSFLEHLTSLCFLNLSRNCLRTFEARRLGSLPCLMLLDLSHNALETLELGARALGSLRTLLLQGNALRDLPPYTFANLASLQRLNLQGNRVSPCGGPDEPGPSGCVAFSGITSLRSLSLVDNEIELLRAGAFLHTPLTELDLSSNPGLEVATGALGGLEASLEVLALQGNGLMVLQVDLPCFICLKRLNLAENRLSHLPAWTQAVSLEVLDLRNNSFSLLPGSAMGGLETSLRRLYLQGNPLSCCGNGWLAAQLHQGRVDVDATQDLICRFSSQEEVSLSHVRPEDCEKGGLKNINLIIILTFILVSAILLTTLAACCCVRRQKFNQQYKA
T6 sequence (P01137 30-390 limits assumed): as the sequence (P01137 30-390) above
T4 sequence (P17246 30-390 limits assumed): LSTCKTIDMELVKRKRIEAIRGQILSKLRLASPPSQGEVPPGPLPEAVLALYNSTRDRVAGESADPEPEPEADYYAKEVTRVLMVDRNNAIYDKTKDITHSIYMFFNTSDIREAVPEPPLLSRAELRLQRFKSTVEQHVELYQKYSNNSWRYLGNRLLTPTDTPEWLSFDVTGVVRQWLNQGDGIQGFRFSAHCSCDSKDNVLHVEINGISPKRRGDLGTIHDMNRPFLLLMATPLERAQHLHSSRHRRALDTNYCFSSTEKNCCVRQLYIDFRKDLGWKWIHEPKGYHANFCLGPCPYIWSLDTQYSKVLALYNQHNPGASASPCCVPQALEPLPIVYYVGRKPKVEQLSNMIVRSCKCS
T3 sequence (P04202 30-390 limits assumed): as the sequence (P17246 30-390 limits assumed) above, with D93E, T99S, F131L, T134S, V202K counted along it

B1: 28G11_H2L3 (antibody, human IgG1, kappa)
heavy: not shown
light: DIQMTQSPSSLSASVGDRLTISCRASQDISNYLNWYQQKPGKTVKLLIYYTSRLHSGVPSRFSGSGSGTDYTLTISSLQPEDVATYFCQQGDTLPWTFGQGTKLEIKRTVAAPSVFIFPPSDEQLKSGTASVVCLLNNFYPREAKVQWKVDNALQSGNSQESVTEQDSKDSTYSLSSTLTLSKADYEKHKVYACEVTHQGLSSPVTKSFNRGEC
Turning to B1, the binding result in assay [1] and in [2] was “binds” in each case.

B2: 20E6_H0.2aL1_hIgG4mut (antibody)
heavy: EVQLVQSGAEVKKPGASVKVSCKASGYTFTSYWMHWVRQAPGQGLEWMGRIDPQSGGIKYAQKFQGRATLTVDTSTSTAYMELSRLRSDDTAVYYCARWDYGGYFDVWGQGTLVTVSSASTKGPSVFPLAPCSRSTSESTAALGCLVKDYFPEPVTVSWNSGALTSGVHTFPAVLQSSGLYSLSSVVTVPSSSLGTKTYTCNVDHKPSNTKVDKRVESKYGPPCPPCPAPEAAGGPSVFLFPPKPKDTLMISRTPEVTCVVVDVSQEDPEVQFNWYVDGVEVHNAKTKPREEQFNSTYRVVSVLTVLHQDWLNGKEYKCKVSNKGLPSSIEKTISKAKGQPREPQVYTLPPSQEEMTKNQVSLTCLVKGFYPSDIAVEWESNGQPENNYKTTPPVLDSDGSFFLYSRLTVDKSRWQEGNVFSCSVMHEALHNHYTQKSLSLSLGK
light: B1 light with L19V, S22T, S30T, T43A, V83F
B2: the Kd (in general, a measure of binding affinity in units of concentration) in assay [3] is 1.31 nM; in assay [4] it was 0.51 nM; in assay [5] it was 1.53 nM; in [6], 0.51 nM; in assay [7], 16.9 nM; in [8], 11.1 nM. Besides, the Kd was 26.1 nM in [9] and 10.7 nM in [10]. For the same molecule, the koff (in general, the rate constant with which the complex falls apart) in [3] worked out at 0.0011 s⁻¹; in [4], 0.00087 s⁻¹; in assay [5], 0.00143 s⁻¹; in assay [6], 0.00036 s⁻¹; in assay [7], 0.0478 s⁻¹; in [8] it was 0.0406 s⁻¹. The koff in assay [9] was 0.0524 s⁻¹; in assay [10], 0.0303 s⁻¹. The kon (usually a measure of how fast the partners come together) in assay [3] was 840000 M⁻¹ s⁻¹; in assay [4], 1.7e+06 M⁻¹ s⁻¹; in [5] it was 940000 M⁻¹ s⁻¹; in [6] it was 700000 M⁻¹ s⁻¹; in [7], 2.8e+06 M⁻¹ s⁻¹; in [8], 3.6e+06 M⁻¹ s⁻¹. Besides, the kon in assay [9] turned out to be 2e+06 M⁻¹ s⁻¹; in [10] it was 2.8e+06 M⁻¹ s⁻¹.

B3: 28G11_H2L2 (antibody, human IgG1, kappa)
heavy: not shown
light: B1 light with L19V, S22T
Take B3: the binding result in assay [1] is recorded as “binds”.

B4: 28G11_H2L1 (antibody, human IgG1, kappa, V domains shown)
VH: EVQLVESGGGLVQPGGSLRLSCAASGFTFTDYYMSWVRQAPGKGLEWLGFIRNKPNGYTTEYSASVKGRFTISRDNSQSSLYLQMNSLKTEDTAVYYCARYTGGGYFDYWGQGTLLTVSS
VL: DIQMTQSPSSLSASVGDRVTITCRASQDISNYLNWYQQKPGKVPKLLIYYTSRLHSGVPSRFSGSGSGTDYTLTISSLQPEDVATYFCQQGDTLPWTFGQGTKLEIKR
For B4, the binding result in [1] is on record as “binds”.

B5: H0L0 (antibody, human IgG1, kappa, V domains shown)
VH: QVQLVQSGAEVKKPGASVKVSCKASGYTFTSYWMHWVRQAPGQGLEWMGRIDPNSGGIKYNEKFKSRVTMTRDTSISTAYMELSRLRSDDTAVYYCARWDYGGYFDVWGQGTLVTVSS
VL: B4 VL with S30T, V43A, Y71F, V83F, F87Y
notes: also called 20E6_H0L0
In the case of B5, the binding result in [11] is listed as “no binding (tested: single dose, 50 µL of 100 ng/µL)”.

B6: H1L0 (antibody, human IgG1, kappa, V domains shown)
VH: B5 VH with M48I, M70L, R72V
VL: B4 VL with S30T, V43A, Y71F, V83F, F87Y
notes: also called 20E6_H1L0
B6: the binding result in assay [11] was “no binding (tested: single dose, 50 µL of 100 ng/µL)”.

B7: H2L0 (antibody, human IgG1, kappa, V domains shown)
VH: B5 VH with M48I, M70L, R72V, T74K, I76S
VL: B4 VL with S30T, V43A, Y71F, V83F, F87Y
notes: also called 20E6_H2L0
Regarding B7, the binding result in assay [11] is on record as “no binding (tested: single dose, 50 µL of 100 ng/µL)”.

B8: H3L0 (antibody, human IgG1, kappa, V domains shown)
VH: B5 VH with R38K, A40R, M48I, R67K, V68A, M70L, R72V, T74K, I76S
VL: B4 VL with S30T, V43A, Y71F, V83F, F87Y
notes: also called 20E6_H3L0
B8: the binding result in [11] is “no binding (tested: single dose, 50 µL of 100 ng/µL)”.

B9: 22F9_D102A (antibody, human IgG1, kappa, V domains shown)
VH: QVQLVQPGAEVVKPGASVKLSCKASGYTFTSYWMHWVKQRPGQGLEWIGMIHPNSGSTNYNEKFKSKATLTVDKSSSTAYMELSSLRSEDTAVYYCAYYDYAGFFDVWGQGTLVTVSS
VL: DIQLTQSPSSLSASVGDRVTITCRASKSVSTSGYSYMHWYQQKPGKAPKLLIYLASNLESGVPSRFSGSGSGTDFTLTISSLQPEDFATYYCQHSRELPYTFGGGTKVEIKR
notes: also called 22F9_H5L0 with VH D102A
For B9, the binding result in assay [12] is “binds”.

B10: 22F9_H1.1 variant (antibody, human IgG1, kappa, V domains shown)
VH: B9 VH with N54Q, L70M, A79V
VL: B9 VL
B10: the binding result in [13] is given as “binds”.

B11: 22F9_H2.1 variant (antibody, human IgG1, kappa, V domains shown)
VH: B9 VH with N54Q, S76T
VL: B9 VL
Take B11: in [13], the binding result was “binds”.

B12: 22F9_H3.1 variant (antibody, human IgG1, kappa, V domains shown)
VH: B9 VH with K38R, R40A, N54Q, K67R, A68V
VL: B9 VL
For the molecule B12, the binding result in assay [13] is listed as “binds”.

B13: 22F9_N54Q (antibody, human IgG1, kappa, V domains shown)
VH: B9 VH with N54Q, A102D
VL: B9 VL
notes: also called 22F9_H5L0 with VH N54Q
Consider B13, for which the binding result in [12] was “binds”.

B14: 22F9_H5.2L0 (antibody, human IgG1, kappa, V domains shown)
VH: B9 VH with N54Q
VL: B9 VL
notes: also called 22F9_H5L0 with the double N54Q/D102A mutation
For B14, the binding result in assay [12] is on record as “binds”.
